The target in test [1] is T1, FcγRIa extracellular domain with C-terminal His tag (human, UniProt P12314 16-292).
T1 construct: extracellular domain; Soluble receptor expressed in FreeStyle293 cells and used as analyte in Biacore; also called FcgRI; 1a; not shown: His tag at the C terminus
Briefly: SPR Biacore, relative binding amount. A general note: In SPR one partner is held on a chip, and binding of the other changes the refractive index at the surface.
T1 sequence (P12314 16-292): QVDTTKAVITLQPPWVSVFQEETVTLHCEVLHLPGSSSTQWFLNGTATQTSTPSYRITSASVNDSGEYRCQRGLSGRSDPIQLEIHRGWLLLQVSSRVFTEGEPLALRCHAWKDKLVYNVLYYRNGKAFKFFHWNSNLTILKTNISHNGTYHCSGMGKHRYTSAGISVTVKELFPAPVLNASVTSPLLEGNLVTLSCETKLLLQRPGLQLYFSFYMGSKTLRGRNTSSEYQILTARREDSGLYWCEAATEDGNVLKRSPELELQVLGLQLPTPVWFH

Test [2] concerns the target T2, FcγRIIb extracellular domain with C-terminal His tag (human, UniProt P31994 43-217).
T2 construct: extracellular domain; Soluble receptor expressed in FreeStyle293 cells and used as analyte in Biacore; also called FcgRIIb; 2b; not shown: His tag at the C terminus
T2 sequence (looked up): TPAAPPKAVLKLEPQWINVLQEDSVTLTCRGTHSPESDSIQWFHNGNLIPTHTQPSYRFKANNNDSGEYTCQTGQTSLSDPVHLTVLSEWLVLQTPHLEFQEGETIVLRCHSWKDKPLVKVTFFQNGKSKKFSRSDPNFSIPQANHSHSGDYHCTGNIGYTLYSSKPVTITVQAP
In words: SPR Biacore, relative binding amount.

The target in test [3] is T1, FcγRIa extracellular domain with …. Briefly: SPR Biacore; relative binding to FcγRIa divided by that to FcγRIIb.
For test [4], the target named is T3, FcγRIa extracellular domain with C-terminal His tag (human, UniProt P12314 16-292).
T3 construct: extracellular domain; also called FcgRI; CD64; not shown: His tag at the C terminus
In words: SPR Biacore, relative FcγRIa binding vs GpH7-B3/GpL16-k0.
T3 sequence (P12314 16-292): as the sequence (P12314 16-292) above

Test [5] concerns the target T3, FcγRIa extracellular domain with …. Briefly: SPR Biacore, relative FcγRIa binding vs GpH7-A5/GpH7-B3/GpL16-k0.

B1: heterodimerized antibody GpH7-A5/GpH7-B3 variant Y296_19Q/GpL16-k0 (antibody, human IgG1, kappa)
heavy 1: not shown
heavy 2: not shown
light: DIVMTQSPLSLPVTPGEPASISCQASESLVHSNRNTYLHWYLQKPGQSPQLLIYKVSNRFSGVPDRFSGSGSGTDFTLKISRVEAEDVGVYYCSQNTHVPPTFGQGTKVEIERTVAAPSVFIFPPSDEQLKSGTASVVCLLNNFYPREAKVQWKVDNALQSGNSQESVTEQDSKDSTYSLSSTLTLSKADYEKHKVYACEVTHQGLSSPVTKSFNRGEC
notes: Substitution in only one H chain (GpH7-B3 side); also called He Ab
On to B1, for which, in test [1], the He/Con_1a was 112 % of GpH7-A5/GpH7-B3/GpL16-k0 (=100). For the same molecule, the He/Con_2b in test [2] was 89.3 % of GpH7-A5/GpH7-B3/GpL16-k0 (=100). In addition, the “Ia/IIb He_1a/2b” value in test [3] was 1.25 ratio of He/Con_1a to He/Con_2b.

B2: GpH7-B3 variant Q295_09D/GpL16-k0 (antibody, human IgG1, kappa)
heavy: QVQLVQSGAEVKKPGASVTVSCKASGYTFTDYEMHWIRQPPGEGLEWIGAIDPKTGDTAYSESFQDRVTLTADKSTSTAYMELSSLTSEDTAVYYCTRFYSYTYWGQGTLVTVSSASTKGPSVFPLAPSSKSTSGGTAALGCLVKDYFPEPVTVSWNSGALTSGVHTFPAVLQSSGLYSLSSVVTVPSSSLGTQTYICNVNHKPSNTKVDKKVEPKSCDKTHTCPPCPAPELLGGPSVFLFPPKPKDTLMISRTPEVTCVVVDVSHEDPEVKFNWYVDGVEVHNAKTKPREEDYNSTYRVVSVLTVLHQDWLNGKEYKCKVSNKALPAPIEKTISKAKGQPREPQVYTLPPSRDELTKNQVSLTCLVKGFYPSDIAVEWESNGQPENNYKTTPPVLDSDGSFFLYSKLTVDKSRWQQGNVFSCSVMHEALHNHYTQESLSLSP
light: B1 light
notes: mutation in both H chains; also called Ho Ab Q295_09D; Q295D
In the case of B2, the Ho/Con_1a in test [4] is 96.8 % of HoCon Ab (=100).

B3: GpH7-A5/GpH7-B3 variant S239_01G/GpL16-k0 (antibody, human IgG1, kappa)
heavy 1: not shown
heavy 2: not shown
light: B1 light
notes: mutation in one H chain only; also called He Ab S239_01G; S239G
B3: the He/Con_1a in test [5] is 101 % of HeCon Ab (=100).

B4: GpH7-A5/GpH7-B3 variant Q295_05P/GpL16-k0 (antibody, human IgG1, kappa)
heavy 1: not shown
heavy 2: not shown
light: B1 light
notes: mutation in one H chain only; also called He Ab Q295_05P; Q295P
In the case of B4, the He/Con_1a in test [5] was 103 % of HeCon Ab (=100).

B5: GpH7-A5/GpH7-B3 variant Q295_07I/GpL16-k0 (antibody, human IgG1, kappa)
heavy 1: not shown
heavy 2: not shown
light: B1 light
notes: mutation in one H chain only; also called He Ab Q295_07I; Q295I
With B5, the He/Con_1a in test [5] was 103 % of HeCon Ab (=100).

B6: GpH7-A5/GpH7-B3 variant Q295_04F/GpL16-k0 (antibody, human IgG1, kappa)
heavy 1: not shown
heavy 2: not shown
light: B1 light
notes: mutation in one H chain only; also called He Ab Q295_04F; Q295F
B6: the He/Con_1a in test [5] is 102 % of HeCon Ab (=100).

B7: GpH7-B3 variant Q295_03V/GpL16-k0 (antibody, human IgG1, kappa)
heavy: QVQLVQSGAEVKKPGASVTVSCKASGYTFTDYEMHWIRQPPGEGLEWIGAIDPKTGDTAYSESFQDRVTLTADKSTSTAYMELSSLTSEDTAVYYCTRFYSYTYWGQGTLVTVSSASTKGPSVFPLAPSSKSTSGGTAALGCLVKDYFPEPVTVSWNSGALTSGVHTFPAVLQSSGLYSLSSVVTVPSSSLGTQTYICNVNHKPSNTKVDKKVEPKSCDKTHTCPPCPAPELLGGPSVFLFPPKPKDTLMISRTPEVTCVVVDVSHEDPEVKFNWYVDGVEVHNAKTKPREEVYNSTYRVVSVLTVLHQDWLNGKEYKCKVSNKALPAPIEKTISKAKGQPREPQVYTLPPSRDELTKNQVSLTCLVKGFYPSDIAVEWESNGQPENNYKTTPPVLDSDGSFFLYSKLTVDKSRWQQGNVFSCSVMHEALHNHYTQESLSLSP
light: B1 light
notes: mutation in both H chains; also called Ho Ab Q295_03V; Q295V
For B7, the Ho/Con_1a in test [4] was 102 % of HoCon Ab (=100).

B8: GpH7-B3 variant Q295_11K/GpL16-k0 (antibody, human IgG1, kappa)
heavy: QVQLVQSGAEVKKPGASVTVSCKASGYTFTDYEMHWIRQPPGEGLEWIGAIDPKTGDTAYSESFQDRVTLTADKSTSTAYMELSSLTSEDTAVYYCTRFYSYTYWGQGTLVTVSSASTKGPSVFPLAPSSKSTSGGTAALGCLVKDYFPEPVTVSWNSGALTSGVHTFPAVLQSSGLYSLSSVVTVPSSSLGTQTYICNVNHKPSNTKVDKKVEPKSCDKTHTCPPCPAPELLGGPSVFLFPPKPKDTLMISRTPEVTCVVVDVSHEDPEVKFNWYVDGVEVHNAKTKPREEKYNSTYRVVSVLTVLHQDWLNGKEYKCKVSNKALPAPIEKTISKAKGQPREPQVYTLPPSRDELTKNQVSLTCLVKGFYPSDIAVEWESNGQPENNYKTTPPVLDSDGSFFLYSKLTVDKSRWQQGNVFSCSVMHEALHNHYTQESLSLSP
light: B1 light
notes: mutation in both H chains; also called Ho Ab Q295_11K; Q295K
With B8, in test [4], the Ho/Con_1a was 99.9 % of HoCon Ab (=100).

B9: GpH7-A5/GpH7-B3 variant Q295_18N/GpL16-k0 (antibody, human IgG1, kappa)
heavy 1: not shown
heavy 2: not shown
light: B1 light
notes: mutation in one H chain only; also called He Ab Q295_18N; Q295N
With B9, the He/Con_1a in test [5] is 102 % of HeCon Ab (=100).

B10: GpH7-A5/GpH7-B3 variant Q295_09D/GpL16-k0 (antibody, human IgG1, kappa)
heavy 1: not shown
heavy 2: not shown
light: B1 light
notes: mutation in one H chain only; also called He Ab Q295_09D; Q295D
Turning to B10, in test [5], the He/Con_1a was 100 % of HeCon Ab (=100).

B11: GpH7-B3 variant Q295_15Y/GpL16-k0 (antibody, human IgG1, kappa)
heavy: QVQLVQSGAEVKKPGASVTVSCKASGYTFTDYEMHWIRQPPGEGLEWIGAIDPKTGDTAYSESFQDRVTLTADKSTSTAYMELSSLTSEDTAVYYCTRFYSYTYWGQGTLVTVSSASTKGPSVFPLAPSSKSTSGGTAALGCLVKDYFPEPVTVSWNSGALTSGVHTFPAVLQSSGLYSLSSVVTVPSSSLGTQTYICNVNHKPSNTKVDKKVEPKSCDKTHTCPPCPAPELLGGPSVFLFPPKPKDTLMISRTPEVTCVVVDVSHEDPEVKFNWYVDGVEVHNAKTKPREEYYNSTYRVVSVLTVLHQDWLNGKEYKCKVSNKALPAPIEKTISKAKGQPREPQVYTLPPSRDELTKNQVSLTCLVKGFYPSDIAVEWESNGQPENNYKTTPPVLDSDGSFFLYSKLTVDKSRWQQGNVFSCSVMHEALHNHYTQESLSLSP
light: B1 light
notes: mutation in both H chains; also called Ho Ab Q295_15Y; Q295Y
For the molecule B11, the Ho/Con_1a in test [4] is 97 % of HoCon Ab (=100).

B12: GpH7-B3 variant Q295_07I/GpL16-k0 (antibody, human IgG1, kappa)
heavy: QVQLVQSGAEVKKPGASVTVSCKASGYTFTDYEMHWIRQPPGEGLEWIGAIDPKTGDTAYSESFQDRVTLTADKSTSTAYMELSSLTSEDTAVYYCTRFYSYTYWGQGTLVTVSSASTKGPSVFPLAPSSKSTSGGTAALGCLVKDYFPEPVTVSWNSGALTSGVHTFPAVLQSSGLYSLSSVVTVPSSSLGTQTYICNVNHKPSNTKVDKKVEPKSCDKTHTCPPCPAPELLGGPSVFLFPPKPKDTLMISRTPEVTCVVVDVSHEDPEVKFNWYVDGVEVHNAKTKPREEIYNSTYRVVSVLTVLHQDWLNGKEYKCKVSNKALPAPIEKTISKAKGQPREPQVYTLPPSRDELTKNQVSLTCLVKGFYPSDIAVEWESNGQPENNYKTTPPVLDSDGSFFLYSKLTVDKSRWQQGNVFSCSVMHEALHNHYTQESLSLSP
light: B1 light
notes: mutation in both H chains; also called Ho Ab Q295_07I; Q295I
As to B12, the Ho/Con_1a in test [4] is 101 % of HoCon Ab (=100).

B13: heterodimerized antibody GpH7-A5/GpH7-B3 variant Y296_08L/GpL16-k0 (antibody, human IgG1, kappa)
heavy 1: not shown
heavy 2: not shown
light: B1 light
notes: as for B1
Take B13: the He/Con_1a in test [1] was 104 % of GpH7-A5/GpH7-B3/GpL16-k0 (=100). Also, in test [2], the He/Con_2b is 82.3 % of GpH7-A5/GpH7-B3/GpL16-k0 (=100). The “Ia/IIb He_1a/2b” value in test [3] is 1.26 ratio of He/Con_1a to He/Con_2b.

B14: GpH7-B3 variant P329_02A/GpL16-k0 (antibody, human IgG1, kappa)
heavy: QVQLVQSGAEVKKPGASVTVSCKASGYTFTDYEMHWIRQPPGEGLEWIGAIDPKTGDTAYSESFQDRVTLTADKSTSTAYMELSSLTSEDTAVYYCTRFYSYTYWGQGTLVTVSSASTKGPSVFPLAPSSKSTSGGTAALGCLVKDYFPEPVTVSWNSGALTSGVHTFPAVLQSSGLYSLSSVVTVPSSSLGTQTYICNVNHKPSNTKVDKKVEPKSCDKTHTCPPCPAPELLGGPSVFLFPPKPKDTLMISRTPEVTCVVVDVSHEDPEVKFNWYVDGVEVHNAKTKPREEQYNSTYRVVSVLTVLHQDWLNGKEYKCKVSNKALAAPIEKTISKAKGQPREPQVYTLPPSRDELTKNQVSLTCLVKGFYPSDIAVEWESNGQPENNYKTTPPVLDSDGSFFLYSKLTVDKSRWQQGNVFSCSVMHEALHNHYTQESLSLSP
light: B1 light
notes: mutation in both H chains; also called Ho Ab P329_02A; P329A
B14: the Ho/Con_1a in test [4] is 98.2 % of HoCon Ab (=100).

B15: GpH7-B3 variant P271_14T/GpL16-k0 (antibody, human IgG1, kappa)
heavy: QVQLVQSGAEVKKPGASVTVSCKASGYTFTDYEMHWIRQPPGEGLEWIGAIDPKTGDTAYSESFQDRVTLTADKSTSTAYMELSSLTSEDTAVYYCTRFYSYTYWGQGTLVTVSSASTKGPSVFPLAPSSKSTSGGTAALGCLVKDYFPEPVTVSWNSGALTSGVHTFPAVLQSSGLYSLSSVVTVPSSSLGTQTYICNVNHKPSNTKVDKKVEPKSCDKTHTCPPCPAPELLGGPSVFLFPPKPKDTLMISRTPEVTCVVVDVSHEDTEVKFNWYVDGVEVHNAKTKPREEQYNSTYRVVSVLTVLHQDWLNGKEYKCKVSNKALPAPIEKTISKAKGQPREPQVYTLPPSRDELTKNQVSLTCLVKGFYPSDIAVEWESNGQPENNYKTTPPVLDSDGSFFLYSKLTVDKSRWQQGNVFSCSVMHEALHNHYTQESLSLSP
light: B1 light
notes: mutation in both H chains; also called Ho Ab P271_14T; P271T
B15: the Ho/Con_1a in test [4] was 99.5 % of HoCon Ab (=100).

B16: GpH7-A5/GpH7-B3 variant P271_16H/GpL16-k0 (antibody, human IgG1, kappa)
heavy 1: not shown
heavy 2: not shown
light: B1 light
notes: mutation in one H chain only; also called He Ab P271_16H; P271H
Regarding B16, in test [5], the He/Con_1a is 102 % of HeCon Ab (=100).

B17: GpH7-B3 variant Q295_05P/GpL16-k0 (antibody, human IgG1, kappa)
heavy: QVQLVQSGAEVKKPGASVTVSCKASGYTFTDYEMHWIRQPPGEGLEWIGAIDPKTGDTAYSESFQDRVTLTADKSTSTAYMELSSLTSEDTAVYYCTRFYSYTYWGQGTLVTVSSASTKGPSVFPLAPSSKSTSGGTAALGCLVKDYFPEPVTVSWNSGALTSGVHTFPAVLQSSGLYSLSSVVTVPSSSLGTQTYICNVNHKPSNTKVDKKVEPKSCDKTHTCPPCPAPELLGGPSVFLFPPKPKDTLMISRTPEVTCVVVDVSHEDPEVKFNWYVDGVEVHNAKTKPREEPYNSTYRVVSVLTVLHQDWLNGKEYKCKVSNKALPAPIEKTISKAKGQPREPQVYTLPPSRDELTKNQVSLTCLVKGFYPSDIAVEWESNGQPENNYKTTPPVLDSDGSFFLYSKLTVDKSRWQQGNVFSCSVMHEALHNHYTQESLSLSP
light: B1 light
notes: mutation in both H chains; also called Ho Ab Q295_05P; Q295P
For the molecule B17, the Ho/Con_1a in test [4] is 101 % of HoCon Ab (=100).

B18: heterodimerized antibody GpH7-A5/GpH7-B3 variant Y296_07I/GpL16-k0 (antibody, human IgG1, kappa)
heavy 1: not shown
heavy 2: not shown
light: B1 light
notes: as for B1
With B18, the He/Con_1a in test [1] is 104 % of GpH7-A5/GpH7-B3/GpL16-k0 (=100). For the same molecule, the He/Con_2b in test [2] is 84.3 % of GpH7-A5/GpH7-B3/GpL16-k0 (=100). In test [3], the “Ia/IIb He_1a/2b” value is 1.24 ratio of He/Con_1a to He/Con_2b.

B19: GpH7-B3 variant Q295_18N/GpL16-k0 (antibody, human IgG1, kappa)
heavy: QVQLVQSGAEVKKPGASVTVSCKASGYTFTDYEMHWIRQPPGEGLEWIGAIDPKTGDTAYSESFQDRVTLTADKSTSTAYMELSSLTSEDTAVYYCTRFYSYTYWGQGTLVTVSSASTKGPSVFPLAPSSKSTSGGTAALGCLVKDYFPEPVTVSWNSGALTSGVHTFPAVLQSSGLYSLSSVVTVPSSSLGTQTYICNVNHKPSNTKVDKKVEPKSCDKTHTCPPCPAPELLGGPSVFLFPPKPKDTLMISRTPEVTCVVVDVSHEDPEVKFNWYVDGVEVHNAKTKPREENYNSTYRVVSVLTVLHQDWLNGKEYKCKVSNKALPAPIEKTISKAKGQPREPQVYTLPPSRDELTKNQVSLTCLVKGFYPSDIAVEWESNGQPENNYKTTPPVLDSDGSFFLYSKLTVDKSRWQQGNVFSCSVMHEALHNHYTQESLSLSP
light: B1 light
notes: mutation in both H chains; also called Ho Ab Q295_18N; Q295N
For the molecule B19, in test [4], the Ho/Con_1a is 101 % of HoCon Ab (=100).

B20: GpH7-B3 variant P271_15Y/GpL16-k0 (antibody, human IgG1, kappa)
heavy: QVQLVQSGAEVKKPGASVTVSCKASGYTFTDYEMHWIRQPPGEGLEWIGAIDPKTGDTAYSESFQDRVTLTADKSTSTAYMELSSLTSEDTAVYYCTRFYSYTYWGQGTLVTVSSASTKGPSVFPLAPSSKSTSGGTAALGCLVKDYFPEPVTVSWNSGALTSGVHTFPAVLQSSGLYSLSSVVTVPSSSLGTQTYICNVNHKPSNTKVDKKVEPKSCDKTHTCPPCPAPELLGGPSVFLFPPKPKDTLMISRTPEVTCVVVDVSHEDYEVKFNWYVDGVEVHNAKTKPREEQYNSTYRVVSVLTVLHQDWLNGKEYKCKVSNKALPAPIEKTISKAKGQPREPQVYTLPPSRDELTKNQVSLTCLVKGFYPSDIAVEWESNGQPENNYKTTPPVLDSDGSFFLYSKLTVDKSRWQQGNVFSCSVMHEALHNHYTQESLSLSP
light: B1 light
notes: mutation in both H chains; also called Ho Ab P271_15Y; P271Y
Consider B20, for which the Ho/Con_1a in test [4] was 99.4 % of HoCon Ab (=100).

B21: heterodimerized antibody GpH7-A5/GpH7-B3 variant Y296_11K/GpL16-k0 (antibody, human IgG1, kappa)
heavy 1: not shown
heavy 2: not shown
light: B1 light
notes: as for B1
B21: in test [1], the He/Con_1a is 105 % of GpH7-A5/GpH7-B3/GpL16-k0 (=100). Also, in test [2], the He/Con_2b was 72.8 % of GpH7-A5/GpH7-B3/GpL16-k0 (=100). Further, the “Ia/IIb He_1a/2b” value in test [3] was 1.44 ratio of He/Con_1a to He/Con_2b.

B22: GpH7-A5/GpH7-B3 variant P271_15Y/GpL16-k0 (antibody, human IgG1, kappa)
heavy 1: not shown
heavy 2: not shown
light: B1 light
notes: mutation in one H chain only; also called He Ab P271_15Y; P271Y
Consider B22, for which, in test [5], the He/Con_1a is 103 % of HeCon Ab (=100).

(Values after US20180155451A1 (published 2018).)
